{
  "source": "paper PMC6595180",
  "key": {"[1]": {"biological_target": "BG505 SOSIP.v4.1-GT1.1 gp140 trimer (HIV-1 (BG505))", "experiment": "AUC; sedimentation velocity, 20°C, 40,000 rpm, detection at 280 nm, 0.5 mg/mL in formulation buffer (20 mM Tris, 100 mM NaCl pH 7.5); continuous c(s) distribution; also after 0, 1 and 5 freeze-thaw cycles"}, "[2]": {"biological_target": "BG505 SOSIP.664 gp140 trimer (HIV-1 (BG505))", "experiment": "AUC; sedimentation velocity, 20°C, 40,000 rpm, detection at 280 nm, 0.5 mg/mL in formulation buffer (20 mM Tris, 100 mM NaCl pH 7.5); continuous c(s) distribution; also after 0, 1 and 5 freeze-thaw cycles"}},
  "data": [
    {"substance": "BG505 SOSIP.v4.1-GT1.1 gp140 trimer (complex)", "values": [
      {"measurement": "stoichiometry N", "setting": "[1]", "result": 3}
    ]},
    {"substance": "BG505 SOSIP.664 gp140 trimer (complex)", "values": [
      {"measurement": "stoichiometry N", "setting": "[2]", "result": 3}
    ]}
  ]
}
